Test: soluble on expression in E. coli; label from the status in PepcDB or PDB records

Sequence	soluble on expression in E. coli
MKKILVGIPNYNNAAYIVDTIESVLKQSYSGVDVVVFDNASTDDSVEIIENTFLNNPNVLLKKSASNVGPTMNHNRCLEYAIDNEYDYLKVLSSDDVLLPNIIQEQFELLESEPRGAFATCNMIVTDDKLTKIKDHDFLGSNTDGNAVIKKCASHSANYIGGPSNGLLRVSCIGATRFSPEYKWLSDLKFYCDLLANRPFINTGTNGFFYRRHDNTDSSHVSKIKNLQRKESIRFSGEYGGNFLTKIKIYLRDIKSRLLLEHHHHHH	not soluble
TLREGWVVHYSNKDTLRKRHYWRLDCKCITLFQNNTTNRYYKEIPLSEILTVESAQNFSLVPPGTNPHCFEIVTANATYFVGEMPGGTPGGPSGQGAEAARGWETAIRQALM	soluble
MSLKLVGIIGSIADESYNRKLMLYIASHFKETIDIEILDIRDVPMFRVGMEMGPAVEYLNKKISAADGVIIATPEHNHTTTAALKSVIEWLSSSVHPFADKPVLLVGASYFEQGSGRAQLDLRQILESPGVNALVMPKDEFLLGNVKSAFDENGNLKEARTVGFLESVMGNFLKWIKVLKAMKKNNDVKGDWESEDLTASQEIDTTVKGVDMKAEDWVEQAAAKTNAVEGDTYVKLDRGLLTVNQLNWFLNTMPVELTFADDNNQFIYYNRMDENPKDMLAPRQPKQVGDPLESVHPERALKGVKHVVHTLRTGETDLVSMPVPFINKVNEKHVMHYYKAMHDEDGRYRGINEWVVDIWPVVESYLKMTGQKLVADENAKVDEGHHHHHH	soluble
MTLDEEYLDITFLTENGFVRKRCPKCGKHFWTADPEREICGDPPCESYSFIGNPVFKKPFELDEMREYYLNFFERRGHGRIERYPVVARWRTDIYLTIASIADFQPFVTSGVAPPPANPLTISQPCIRLDDLDSVGRTGRHLTLFEMMAHHAFNYPGKEIYWKNETVAYCTELLNELGVKKEDIVYKEEPWAGGGNAGPCLEAIVGGLEVATLVFMNLEEHPEGDIEIKGARYRKMDNYIVDTGYGLERFVWASKGTPTVYDAIFPEVVDTIIDNSNVSFNREDERVRRIVAESSKLAGIMGELRGERLNQLRKSVADTVGVSVEELEGIVVPLEKVYSLADHTRCILFMLGDGLVPSNAGAGYLARLMIRRSLRLAEELELGLDLYDLVEMHKKILGFEFDVPLSTVQEILELEKERYRTTVSKGTRLVERLVERKKKLEKDDLIELYDSHGIPVELAVGIAAEKGAEVEMPKDIYAELAKRHSKAEKVQEKKITLQNEYPATEKLYYDDPTLLEFEAEVIGVEGDFVILNRSAFYPESGGQDNDVGYLIANGGKFEVVDVLEADGVVLHVVKGAKPEVGTKVKGVIDSDVRWRHMRHHSATHVLLYSLQKVLGNHVWQAGARKEFSKARLDVTHFRRPSEEEIKEIEMLANREILANKPIKWEWMDRIEAERKFGFRLYQGGVPPGRKIRVVQVGDDVQACGGTHCRSTGEIGMLKILKVESIQDGVIRFEFAAGEA	soluble
GRAGGRTLGEQWKEKLNAMGKEEFFSYRKEAILEVDRTEARRARREGNKVGGHPVSRGTAKLRWLVERRFVQPIGKVVDLGCGRGGWSYYAATMKNVQEVRGYTKGGPGHEEPMLMQSYGWNIVTMKSGVDVFYKPSEISDTLLCDIGESSPSAEIEEQRTLRILEMVSDWLSRGPKEFCIKILCPYMPKVIEKLESLQRRFGGGLVRVPLSRNSNHEMYWVSGASGNIVHAVNMTSQVLIGRMDKKIWKGPKYEEDVNLGSGTRAVGK	soluble
MGSDKIHHHHHHMKKVLVAGATGYLGRYAVQEFKNRGYWVRALVRNPEKFKKPGPFFAPEIDTLVDDVVFGDATKPETIAGLCDGIDVVFSSLGMIKPDFEHDNFDVDYQGNMNILAEALKAGVKKFVYVSVFDAHRMMNIPNVQAHEKFVRELQAAKIESTIIRPNGFFSEIGQFVARARRGFMLWIGDGYNRQNPIHGADLAKVCADAVDSSEKEIEVGGPEVFTYREMVDLAIEIAGTQPVQVSLPFWLADGIVGVLGLFNRDVHDVALFATTLSKMDFVSPKYGTHRLRDFFNECKLLPL	not soluble
MHPKDQSVTLLSIIRDYLKLSDKEREAARILANGLVKVDGKTVREKKFAVGFMDVIEINGESYRVVYNDQGALVLMKETKERASMKLLKVRSKVIAPGNRIQLGTHDGRTFITDDKSKKVGDVWAVSVPDMKISEIIKMQPGNKAYITAGSHVNQTGTISKIEAKEGSSANLVHFQEGFSTIKDHVFMIGSSKFSFVLSPEEVIPLEHHHHHH	soluble
HMMQSWSAPAIPVVPGRGPALRLFDSADRQVRPVTPGPTATMYVCGITPYDATHLGHAATYLTFDLVHRLWLDAGHTVQYVQNVTDVDDPLFERAERDGIDWRTLGDRETQLFREDMAALRVLPPHDYVAATDAIAEVVEMVEKLLASGAAYIVEDAEYPDVYFRADATAQFGYESGYDRDTMLTLFAERGGDPDRPGKSDQLDALLWRAERPGEPSWPSPFGRGRPGWHVECSAIALTRIGTGLDIQGGGSDLIFPHHEYSAAHAESVTGERRFARHYVHTGMIGWDGHKMSKSRGNLVLVSQLRAQGVDPSAIRLGLFSGHYREDRFWSNEVLDEANARLARWRSATALPEAPDATDVIARVRQYLADDLDTPKALAALDGWCTDALSYGGHDTESPRLVATTVDALLGVDL	soluble
MGSDKIHHHHHHMRTSLLYKIKEEERILPSKNLKGNEIIFILAFPDIYKYGLPNLGIQTLYKELYLRDDVAVDRYYTDEDQPFSFEYGFKLKDSDFIGISFQYEGIVLNAFKILKAGSIPLINLLREENDPIIIGGGPVANYNPLPLSLVCDVIVLGEAEEAIHKIIDSYKVYRNVKRKRMKFLQAVSQIEGIYVPCIHGFFQTGMVKQTSPVDINEHPAHSIFVTKNTVYEERVFSIEVRRGCTQRCRFCYMGHRLKPPRTLRWETFKKIVDLAIDQCNVEIIKLFYEGLETRIVEHYLEYIIKKGGRVRIGSQRLEKLSKRIIEIAAISGQRKITVAPETSGRLRKVIGKHEIKDEEILEVVRISSLYGIPDFGLYFILAIPGETFEDLDKIADLIMKVRHQMNKLKNTDGRLEIGINPLYPKPFTPFQYVKLPSLKNIEDRFLYIVEKVKKEGFPVVISNDVVDEKVEKRQKDENENESLVKFETTVFHPISLLQPMISRGGLEIAFLLHYLHSKRFNTVSDLENLLNEFGINAAWYFEEYIDKYCPWKIQKTLISEDYLLKEYFKALNFISTDEECKLNCSQCFNRCIDISTTNYQGGMSNA	not soluble
MCHSGTFHLTAGESVEWVLTWAPSFEPHPPMPDYTRSLESTLSFWASWVEELPHQRLYDAEVRRSMLVLRALTDLQTGGIVAAPTTSLPEDFGGIRNWDYRYVWLRDSALTIEALVEYGFSQAALQWRTWLLRAIAGDPENLRIMYGLGGERHLPERELQHLRGYENSVPVRVGNGAAEQYQADVVGEVMVALETIRRAGCLEDEFSWGMQKAILDFQEANFDRKDQGIWEMRSEPQYFTHGRAMMWAGFDRGIKAIEEFNLDGPIERWRELRAKLREEIMTNGFNEEIQSFTQCYDNTQVDASLLQLAQIGFIGFDDPKMLSTVARIEQELLDAHGFLHRYHTDGSDGLAGDEYPFLICSFWLVEQYASSNRLDEAKEKMNRILAVQSPLGLLAEEYSTHHGRLAGNYPQAFSHIGLISAARAINFEEARNRLEHHHHHH	soluble
AIAALKDYALEKEKVKKFLQEFYQDDELGKKQFKYGNQLVRLAHREQVALYVDLDDVAEDDPELVDSICENARRYAKLFADAVQELLPQYKEREVVNKDVLDVYIEHRLMMEQRSRDPGMVRSPQNQYPAELMRRFELYFQGPSSSKPRVIREVRADSVGKLVTVRGIVTRVSEVKPKMVVATYTCDQCGAETYQPIQSPTFMPLIMCPSQECQTNRSGGRLYLQTRGSRFIKFQEMKMQEHSDQVPVGNIPRSITVLVEGENTRIAQPGDHVSVTGIFLPILRTGFRQVVQGLLSETYLEAHRIVKMNKSEDDESGAGELTREELRQIADVIFATVRELVSGGRSVRFSEAEQRCVSRGFTPAQFQAALDEYEELNVWQVNASRTRITFV	soluble
MGSDKIHHHHHHMNTAPFKLEADFASALPTMAAPWQGEEAPNPELVILNDDLAYSLGLDPTWLRTPEGVQFLLGLNPEPLTKAVAQAYSGHQFGQFVASLGDGRALLLGEARSADGVLHDIHLKGSGRTQFSRGADGRAVLGPVLREYIISEAMHALGVPTTRSLAVISTGRKIQRGSVAPGAVLVRVATSLIRVGSFQYSNISGGIELSQHLANYTITRHFPSLVAELSAPTPATYVSLFKAILQRQADTVGKWTRLGFVHGALNTDNTLISGETVDYGPCAFMERYRGDAKFSSIDTYGRYKFENQPMILGWNMARLVETLLPLLGATPDEGMTAAQEALVEFDDLCEQAIRKEFATALGLDESDTGTVEQFRELLYLHNPDITTLLRALTDNTAPPSGFEAFVHDWKTQDPDIEAMRAVNPLFIPRNHLVEAALADAVEGNLEKFHELLAAVTNPFDPTAGPDELRLPSEEGFEEDYMTFCGT	not soluble
MTQKRTLLKYGILSLALAAPLSACAFDSLTVIGDSLSDTGNNGRWTWDSGQNKLYDEQLAERYGLELSPSSNGGSNYAAGGATATPELNPQDNTADQVRQWLAKTGGKADHNGLYIHWVGGNDLAAAIAQPTMAQQIAGNSATSAAAQVGLLLDAGAGLVVVPNVPDISATPMLLEAVITAGLGAAAPPALKAALDALAEGATPDFASRQQAIRKALLAAAATVSSNPFIQQLLVEQLLAGYEAAAGQASALTDYYNQMEEKGLEQHGGNIARADINGLFKEILANPQAFGLTNTVGMACPPGVSASACSSAMPGFNASQDYLFADHLHPGPQVHTIIAQYIQSIIAAPVQATYLNQSVQSMAQGSRTTLDSRYQQLRQGENPVGSLGMFGGYSGGYQRYDNNEADGNGNHNNLTVGVDYQLNEQVLLGGLIAGSLDKQHPDDNYRYDARGFQAAVFSHLRAGQAWLDSDLHFLSAKFSNIQRSITLGALRRVEEGETNGRLWGARLTSGYDFVMVPWLTTGPMLQYAWDYSHVNGYSEKLNTSTSMRFGDQNAHSQVGSAGWRLDLRHSIIHSWAQINYRRQFGDDTYVANGGLKSTALTFSRDGKTQDKNWVDIAIGADFPLSATVSAFAGLSQTAGLSDGNQTRYNVGFSARF	not soluble
MDYLNYEEIQSLKNSLLHNIKHTYISRYMILTALYTGMRPGEIAVLTWSDIDFKNQTININKSYNHDKGRVDNYDSSEIDKSTKNTNSVRIIKVDKKFLDILSQLKQNDHEKIFIGKDGTIPTSNAVNKVWRKQLEKLNIDKPSFHFHSVRHTHVALLPFKGVPLYAISKRLGHANMSTTAKKYAYMLDELKQQVRLEHHHHHH	soluble
MNINEILKKLINKSDLEINEAEELAKAIIRGEVPEILVSAILVALRMKGESKNEIVGFARAMRELAIKIDVPNAIDTAGTGGDGLGTVNVSTASAILLSLVNPVAKHGNRAVSGKSGSADVLEALGYNIIVPPERAKELVNKTNFVFLFAQYYHPAMKNVANVRKTLGIRTIFNILGPLTNPANAKYQLMGVFSKDHLDLLSKSAYELDFNKIILVYGEPGIDEVSPIGNTFMKIVSKRGIEEVKLNVTDFGISPIPIEKLIVNSAEDSAIKIVRAFLGKDEHVAEFIKINTAVALFALDRVGDFREGYEYADHLIEKSLDKLNEIISMNGDVTKLKTIVVKSSG	soluble
MLCQKCQKRVANVQMTQIINNNKTVIYLCEQCAREEGKFNVISPFSINDFFSGFMGFPYMASAPQQNQDVVCETCGMSYEEFKKVGKLGCSNCYKTYGDRLVPLLRRLHGNIQYNGKFPSRAFGSIKISREIEKLKEQLNIAIKNEEYEKAAILRDQIRNLESNQNNM	not soluble
MDQKQLQALVEQISIRVFGKPFRHTAFFNPRLRTTGGRYMLQTHNIELNKKHYEQFGEEELIAIIKHELCHYHLHLEGKGYRHRDRDFRELLQKVGAPRYCRPLARNTKAPKTIYTYICTSCGLTYRRKRRINIDRYVCGRCRSKLKRS	not soluble
